Test system: Abp1 PPIs
Experiment: DHFR-PCA of Abp1 SH3-swapped baits (Fig. 2B-D, S2C, S2F);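 on Protein-protein interaction distance between Abp1 SH3-swapped baits, to ABP1: Euclidean distance between DHFR-PCA score profiles of the baits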;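 on Protein-protein interaction distance between Abp1 SH3-swapped baits, to BEM1-2: Euclidean distance between DHFR-PCA score profiles of the baits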;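 on Protein-protein interaction distance between Abp1 SH3-swapped baits, to BOI1: Euclidean distance between DHFR-PCA score profiles of the baits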;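 on Protein-protein interaction distance between Abp1 SH3-swapped baits, to BZZ1-1: Euclidean distance between DHFR-PCA score profiles of the baits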
Assay type: cell-based, Saccharomyces cerevisiae
Conditions: for Protein-protein interaction distance between Abp1 SH3-swapped baits, to ABP1: Abp1 bait with swapped SH3, distance to bait with ABP1 SH3; for Protein-protein interaction distance between Abp1 SH3-swapped baits, to BBC1: distance to Abp1 bait with BBC1 SH3; for Protein-protein interaction distance between Abp1 SH3-swapped baits, to BEM1-1: distance to Abp1 bait with BEM1-1 SH3; for Protein-protein interaction distance between Abp1 SH3-swapped baits, to BEM1-2: distance to Abp1 bait with BEM1-2 SH3; for Protein-protein interaction distance between Abp1 SH3-swapped baits, to BOI1: distance to Abp1 bait with BOI1 SH3; for Protein-protein interaction distance between Abp1 SH3-swapped baits, to BOI2: distance to Abp1 bait with BOI2 SH3; for Protein-protein interaction distance between Abp1 SH3-swapped baits, to BUD14: distance to Abp1 bait with BUD14 SH3; for Protein-protein interaction distance between Abp1 SH3-swapped baits, to BZZ1-1: distance to Abp1 bait with BZZ1-1 SH3; for Protein-protein interaction distance between Abp1 SH3-swapped baits, to BZZ1-2: distance to Abp1 bait with BZZ1-2 SH3; for Protein-protein interaction distance between Abp1 SH3-swapped baits, to CDC25: distance to Abp1 bait with CDC25 SH3; for Protein-protein interaction distance between Abp1 SH3-swapped baits, to CTTN: distance to Abp1 bait with CTTN SH3; for Protein-protein interaction distance between Abp1 SH3-swapped baits, to CYK3: distance to Abp1 bait with CYK3 SH3; for Protein-protein interaction distance between Abp1 SH3-swapped baits, to DBNL: distance to Abp1 bait with DBNL SH3; for Protein-protein interaction distance between Abp1 SH3-swapped baits, to FUS1: distance to Abp1 bait with FUS1 SH3; for Protein-protein interaction distance between Abp1 SH3-swapped baits, to HCLS1: distance to Abp1 bait with HCLS1 SH3; for Protein-protein interaction distance between Abp1 SH3-swapped baits, to HOF1: distance to Abp1 bait with HOF1 SH3; for Protein-protein interaction distance between Abp1 SH3-swapped baits, to HSE1: distance to Abp1 bait with HSE1 SH3; for Protein-protein interaction distance between Abp1 SH3-swapped baits, to LSB1: distance to Abp1 bait with LSB1 SH3; for Protein-protein interaction distance between Abp1 SH3-swapped baits, to LSB3: distance to Abp1 bait with LSB3 SH3; for Protein-protein interaction distance between Abp1 SH3-swapped baits, to MYO3: distance to Abp1 bait with MYO3 SH3; for Protein-protein interaction distance between Abp1 SH3-swapped baits, to MYO5: distance to Abp1 bait with MYO5 SH3; for Protein-protein interaction distance between Abp1 SH3-swapped baits, to NBP2: distance to Abp1 bait with NBP2 SH3; for Protein-protein interaction distance between Abp1 SH3-swapped baits, to PIN3: distance to Abp1 bait with PIN3 SH3; for Protein-protein interaction distance between Abp1 SH3-swapped baits, to RVS167: distance to Abp1 bait with RVS167 SH3; for Protein-protein interaction distance between Abp1 SH3-swapped baits, to SDC25: distance to Abp1 bait with SDC25 SH3; for Protein-protein interaction distance between Abp1 SH3-swapped baits, to SHO1: distance to Abp1 bait with SHO1 SH3; for Protein-protein interaction distance between Abp1 SH3-swapped baits, to SLA1-1: distance to Abp1 bait with SLA1-1 SH3; for Protein-protein interaction distance between Abp1 SH3-swapped baits, to SLA1-2: distance to Abp1 bait with SLA1-2 SH3; for Protein-protein interaction distance between Abp1 SH3-swapped baits, to SLA1-3: distance to Abp1 bait with SLA1-3 SH3; for Protein-protein interaction distance between Abp1 SH3-swapped baits, to YSC84: distance to Abp1 bait with YSC84 SH3; for PPIs gained by Abp1 - SH3-dependent PPIs gained by Abp1 / SH3-dependent PPIs - SH3-dependent PPIs gained by Abp1 / SH3-dependent PPIs gained by Abp1: number of PPIs, Abp1 SH3-swapped with the listed SH3, Fig2D,S2F; for PPIs gained by Abp1 - SH3-dependent PPIs gained by Abp1 / SH3-dependent PPIs - SH3-dependent PPIs gained by Abp1: difference; for SH3-dependent PPIs gained by Abp1: DHFR-PCA
In short: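 Interactions were scored by DHFR protein-fragment complementation. DHFR F[1,2]-tagged Abp1 strains, whose SH3 was swapped for yeast or human ortholog domains, were crossed on YPD at 30 °C for 48 h with a 1536-format array of 575 prey-DHFR F[3] strains and 40 negatives, giving four replicates per pair. PCA selection lasted 4 days after double diploid selection.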

B1: LSB1 (protein, UniProt P53281 2-241, looked up)
LAS seventeen-binding protein …: SASLVNRSLKNIRNELEFLKESNVISGDIFELINSKLPEKWDGNQRSPQNADTEEYVEALYDFEAQQDGDLSLKTGDKIQVLEKISPDWYRGKSNNKIGIFPANYVKPAFTRSASPKSAEAASSSTVSRPSVPPPSYEPAASQYPSQQVSAPYAPPAGYMQAPPPQQQQAPLPYPPPFTNYYQQPQQQYAPPSQQAPVEAQPQQSSGASSAFKSFGSKLGNAAIFGAGSAIGSDIVNSIF
Protein-protein interaction distance between Abp1 SH3-swapped baits, to ABP1 (sheet Fig2C): 13.24
Protein-protein interaction distance between Abp1 SH3-swapped baits, to BBC1 (sheet Fig2C): 13.47
Protein-protein interaction distance between Abp1 SH3-swapped baits, to BEM1-1 (sheet Fig2C): 19.25
Protein-protein interaction distance between Abp1 SH3-swapped baits, to BEM1-2 (sheet Fig2C): 36.52
Protein-protein interaction distance between Abp1 SH3-swapped baits, to BOI1 (sheet Fig2C): 16.11
Protein-protein interaction distance between Abp1 SH3-swapped baits, to BOI2 (sheet Fig2C): 19.63
Protein-protein interaction distance between Abp1 SH3-swapped baits, to BUD14 (sheet Fig2C): 22.3
Protein-protein interaction distance between Abp1 SH3-swapped baits, to BZZ1-1 (sheet Fig2C): 10.43
Protein-protein interaction distance between Abp1 SH3-swapped baits, to BZZ1-2 (sheet Fig2C): 15.96
Protein-protein interaction distance between Abp1 SH3-swapped baits, to CDC25 (sheet Fig2C): 30.85
Protein-protein interaction distance between Abp1 SH3-swapped baits, to CTTN (sheet Fig2C): 16.72
Protein-protein interaction distance between Abp1 SH3-swapped baits, to CYK3 (sheet Fig2C): 31.53
Protein-protein interaction distance between Abp1 SH3-swapped baits, to DBNL (sheet Fig2C): 10.77
Protein-protein interaction distance between Abp1 SH3-swapped baits, to FUS1 (sheet Fig2C): 23.45
Protein-protein interaction distance between Abp1 SH3-swapped baits, to HCLS1 (sheet Fig2C): 10.61
Protein-protein interaction distance between Abp1 SH3-swapped baits, to HOF1 (sheet Fig2C): 35.15
Protein-protein interaction distance between Abp1 SH3-swapped baits, to HSE1 (sheet Fig2C): 12.02
Protein-protein interaction distance between Abp1 SH3-swapped baits, to LSB1 (sheet Fig2C): 0.00
Protein-protein interaction distance between Abp1 SH3-swapped baits, to LSB3 (sheet Fig2C): 3.731
Protein-protein interaction distance between Abp1 SH3-swapped baits, to MYO3 (sheet Fig2C): 9.135
Protein-protein interaction distance between Abp1 SH3-swapped baits, to MYO5 (sheet Fig2C): 7.822
Protein-protein interaction distance between Abp1 SH3-swapped baits, to NBP2 (sheet Fig2C): 21.49
Protein-protein interaction distance between Abp1 SH3-swapped baits, to PIN3 (sheet Fig2C): 5.513
Protein-protein interaction distance between Abp1 SH3-swapped baits, to RVS167 (sheet Fig2C): 7.392
Protein-protein interaction distance between Abp1 SH3-swapped baits, to SDC25 (sheet Fig2C): 37.12
Protein-protein interaction distance between Abp1 SH3-swapped baits, to SHO1 (sheet Fig2C): 11.57
Protein-protein interaction distance between Abp1 SH3-swapped baits, to SLA1-1 (sheet Fig2C): 33.34
Protein-protein interaction distance between Abp1 SH3-swapped baits, to SLA1-2 (sheet Fig2C): 24.03
Protein-protein interaction distance between Abp1 SH3-swapped baits, to SLA1-3 (sheet Fig2C): 5.759
Protein-protein interaction distance between Abp1 SH3-swapped baits, to YSC84 (sheet Fig2C): 3.911
PPIs gained by Abp1 - SH3-dependent PPIs gained by Abp1: 41
SH3-dependent PPIs - SH3-dependent PPIs gained by Abp1: 8
SH3-dependent PPIs gained by Abp1: 0

B2: HSE1 (protein, UniProt P38753 2-452, looked up)
Class E vacuolar …: SSSAIKIRNALLKATDPKLRSDNWQYILDVCDLVKEDPEDNGQEVMSLIEKRLEQQDANVILRTLSLTVSLAENCGSRLRQEISSKNFTSLLYALIESHSVHITLKKAVTDVVKQLSDSFKDDPSLRAMGDLYDKIKRKAPYLVQPNVPEKHNMSTQADNSDDEELQKALKMSLFEYEKQKKLQEQEKESAEVLPQQQQQHQQQNQAPAHKIPAQTVVRRVRALYDLTTNEPDELSFRKGDVITVLEQVYRDWWKGALRGNMGIFPLNYVTPIVEPSKEEIEKEKNKEAIVFSQKTTIDQLHNSLNAASKTGNSNEVLQDPHIGDMYGSVTPLRPQVTRMLGKYAKEKEDMLSLRQVLANAERSYNQLMDRAANAHISPPVPGPALYAGMTHANNTPVMPPQRQSYQSNEYSPYPSNLPIQHPTNSANNTPQYGYDLGYSVVSQPPPGYEQ
Protein-protein interaction distance between Abp1 SH3-swapped baits, to ABP1 (sheet Fig2C): 9.43
Protein-protein interaction distance between Abp1 SH3-swapped baits, to BBC1 (sheet Fig2C): 7.295
Protein-protein interaction distance between Abp1 SH3-swapped baits, to BEM1-1 (sheet Fig2C): 11.1
Protein-protein interaction distance between Abp1 SH3-swapped baits, to BEM1-2 (sheet Fig2C): 30.97
Protein-protein interaction distance between Abp1 SH3-swapped baits, to BOI1 (sheet Fig2C): 7.847
Protein-protein interaction distance between Abp1 SH3-swapped baits, to BOI2 (sheet Fig2C): 11.78
Protein-protein interaction distance between Abp1 SH3-swapped baits, to BUD14 (sheet Fig2C): 14.54
Protein-protein interaction distance between Abp1 SH3-swapped baits, to BZZ1-1 (sheet Fig2C): 5.175
Protein-protein interaction distance between Abp1 SH3-swapped baits, to BZZ1-2 (sheet Fig2C): 7.81
Protein-protein interaction distance between Abp1 SH3-swapped baits, to CDC25 (sheet Fig2C): 24.19
Protein-protein interaction distance between Abp1 SH3-swapped baits, to CTTN (sheet Fig2C): 9.154
Protein-protein interaction distance between Abp1 SH3-swapped baits, to CYK3 (sheet Fig2C): 25.16
Protein-protein interaction distance between Abp1 SH3-swapped baits, to DBNL (sheet Fig2C): 5.82
Protein-protein interaction distance between Abp1 SH3-swapped baits, to FUS1 (sheet Fig2C): 16.23
Protein-protein interaction distance between Abp1 SH3-swapped baits, to HCLS1 (sheet Fig2C): 9.236
Protein-protein interaction distance between Abp1 SH3-swapped baits, to HOF1 (sheet Fig2C): 29.42
Protein-protein interaction distance between Abp1 SH3-swapped baits, to HSE1 (sheet Fig2C): 0.00
Protein-protein interaction distance between Abp1 SH3-swapped baits, to LSB1 (sheet Fig2C): 12.02
Protein-protein interaction distance between Abp1 SH3-swapped baits, to LSB3 (sheet Fig2C): 12.29
Protein-protein interaction distance between Abp1 SH3-swapped baits, to MYO3 (sheet Fig2C): 11.17
Protein-protein interaction distance between Abp1 SH3-swapped baits, to MYO5 (sheet Fig2C): 10.84
Protein-protein interaction distance between Abp1 SH3-swapped baits, to NBP2 (sheet Fig2C): 13.88
Protein-protein interaction distance between Abp1 SH3-swapped baits, to PEX13 (distance to Abp1 bait with PEX13 SH3, sheet Fig2C): 8.715
Protein-protein interaction distance between Abp1 SH3-swapped baits, to PIN3 (sheet Fig2C): 9.808
Protein-protein interaction distance between Abp1 SH3-swapped baits, to RVS167 (sheet Fig2C): 7.315
Protein-protein interaction distance between Abp1 SH3-swapped baits, to SDC25 (sheet Fig2C): 31.59
Protein-protein interaction distance between Abp1 SH3-swapped baits, to SHO1 (sheet Fig2C): 5.64
Protein-protein interaction distance between Abp1 SH3-swapped baits, to SLA1-1 (sheet Fig2C): 27.26
Protein-protein interaction distance between Abp1 SH3-swapped baits, to SLA1-2 (sheet Fig2C): 16.63
Protein-protein interaction distance between Abp1 SH3-swapped baits, to SLA1-3 (sheet Fig2C): 11.86
Protein-protein interaction distance between Abp1 SH3-swapped baits, to YSC84 (sheet Fig2C): 12.83
PPIs gained by Abp1 - SH3-dependent PPIs gained by Abp1: 4
SH3-dependent PPIs - SH3-dependent PPIs gained by Abp1: 1
SH3-dependent PPIs gained by Abp1: 0

Source: publication PMC7954794, “Protein context shapes the specificity of SH3 domain-mediated interactions in vivo” (Nature Communications, 2021)
